Test in all cases: fluorescence anisotropy
In data set [1] the target is T1, PABP1 (WT) (human, UniProt P11940 1-636).
In another data set the target is scPABP1 (human, UniProt P11940 1-636, C43S;C128S;C132S).
In data set [2] the target is T1, PABP1 (WT). The source holds these as a separate data set.

T1 sequence (P11940 whole entry): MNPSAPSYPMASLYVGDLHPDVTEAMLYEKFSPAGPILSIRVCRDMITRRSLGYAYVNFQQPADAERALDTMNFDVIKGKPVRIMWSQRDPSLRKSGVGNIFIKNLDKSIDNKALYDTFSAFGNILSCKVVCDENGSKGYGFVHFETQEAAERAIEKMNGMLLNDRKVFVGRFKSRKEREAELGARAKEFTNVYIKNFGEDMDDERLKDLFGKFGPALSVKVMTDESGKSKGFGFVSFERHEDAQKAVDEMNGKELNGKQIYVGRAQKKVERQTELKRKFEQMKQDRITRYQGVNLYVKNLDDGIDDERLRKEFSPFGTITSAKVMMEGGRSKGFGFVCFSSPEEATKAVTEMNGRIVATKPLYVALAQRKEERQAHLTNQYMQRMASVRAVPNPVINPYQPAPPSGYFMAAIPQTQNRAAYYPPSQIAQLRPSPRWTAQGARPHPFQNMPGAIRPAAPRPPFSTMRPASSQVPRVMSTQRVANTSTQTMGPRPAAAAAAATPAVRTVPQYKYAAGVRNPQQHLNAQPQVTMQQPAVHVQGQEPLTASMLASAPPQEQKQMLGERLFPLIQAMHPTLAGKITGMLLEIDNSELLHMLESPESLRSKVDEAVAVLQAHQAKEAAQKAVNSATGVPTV
scPABP1, sequence (P11940 whole entry C43S/C128S/C132S): as the sequence (P11940 whole entry) above, with C43S, C128S, C132S counted along it

As for AAAAAAAAAAAAAAAAAU (ssRNA) [Poly (A)18], the results for the Kd in the data set with PABP1 (WT) [1] and with scPABP1 were 2 ± 0.5 nM and 5.1 ± 0.6 nM, respectively.
Turning to CCCCCCCCCCCCCCCCCU (ssRNA) [Poly (C)18], in the data set with PABP1 (WT) [2], the binding result is given as “no binding”.

Source of the values: article PMC6205234.
